Data: FireProtDB (doi:10.1021/bi00005a026)

Conditions: Hordeum vulgare; pH 6.3; Thermal; Fluorescence; phosphate 10 mM; reversible: yes; whole UniProt chain shown

B1: Subtilisin-chymotrypsin inhibitor-2A wild type, P01053 (protein)
chain: MSSVEKKPEGVNTGAGDRHNLKTEWPELVGKSVEEAKKVILQDKPEAQIIVLPVGTIVTMEYRIDRVRLFVDKLDNIAQVPRVG
Tm: 46.6 °C
unfolding enthalpy (van 't Hoff): 34.1 kcal/mol
